In the DeepSol protein solubility set:

Assay: soluble on expression in E. coli; label from the status in PepcDB or PDB records

Q: For “MGQVEVIDRRQSVFGDDIQLQKRSSSYEIISNGVFLMSTENGRSEREMVTLGAQHMKNAVHSVLIGGLGVGITADEAVHLNDHVQVHVVEIEPSVVEWQYRYLYPFSNQALEHERTAIIISDIQQWLRTNERTYDLICLDTDNGPDWMVHKQNASLYGKIGLELVRERVRVGGAVSFWSASASESFLHELETLFDRVYEHAVSISHTLPPDYVYVACRDLEHHHHHH”, which “soluble on expression in E. coli” value is on record?
A: Its value is “soluble”.

Q: For “MTPLPVTVIGGYLGAGKTTLVNHLLRHAAGRRLAVLVNEFGDLPIDADLIEAEEDGMISIAGGCICCSFGSDLIGALNDLAAMEPRPDHILVESSGVAIPGAIVSTMLLADGIRSDGIVVVVDGETVRQRAQDDYVGDTITRQLSDAEIVVVNKTDLLAHAVQTELMEWLAEAAPGAIAIPAERGRVAPGALLGVLPAPGTGQPAHHSDRLFDSLVLAPEGGQPIERLARDLATGPHGVIRAKGYLRDIEGALWLIQTVGRRWEVTPAQGPHQTGLVCIGFRDRLDRSGLAALAGATV”, which “soluble on expression in E. coli” value is on record?
A: Its value is “not soluble”.

Q: With “MPEFDFSPITEGIYNVIETEEKVLTSLPEETITQKRNRQNRTIKQILGHLIDSTSNNHQRMIRLQYSKDLLFFPDYRQDNDLWIALQDYQHTDWNNLIQLWKFFNLHIIQVIKSVDQTKLDSYWCDFEGTKVTLKEMIEGYLDHLNLHIQEIHELI” as the sequence, how does the “soluble on expression in E. coli” value read?
A: Its value is “not soluble”.

Q: For “GSPGISGGGGGILDMADDDVLFEDVYELCEVIGKGAFSVVRRCINRETGQQFAVKIVDVAKFTSSPGLSTEDLKREASICHMLKHPHIVELLETYSSDGMLYMVFEFMDGADLCFEIVKRADAGFVYSEAVASHYMRQILEALRYCHDNNIIHRDVKPENVLLASKENSAPVKLGDFGVAIQLGESGLVAGGRVGTPHFMAPEVVKREPYGKPVDVWGCGVILFILLSGCLPFYGTKERLFEGIIKGKYKMNPRQWSHISESAKDLVRRMLMLDPAERITVYEALNHPWLKERDRYAYKIHLPETVEQLRKFNARRKLKGAVLAAVSSHKFNSFYGDPPEELPDFSEDPTS”, which “soluble on expression in E. coli” value is on record?
A: The value was “soluble”.

Q: With “MLGNLKPQAPDKILALMGEFRADPRQGKIDLGVGVYKDATGHTPIMRAVHAAEQRMLETETTKTYAGLSGEPEFQKAMGELILGDGLKSETTATLATVGGTGALRQALELARMANPDLRVFVSDPTWPNHVSIMNFMGLPVQTYRYFDAETRGVDFEGMKADLAAAKKGDMVLLHGCCHNPTGANLTLDQWAEIASILEKTGALPLIDLAYQGFGDGLEEDAAGTRLIASRIPEVLIAASCSKNFGIYRERTGCLLALCADAATRELAQGAMAFLNRQTYSFPPFHGAKIVSTVLTTPELRADWMAELEAVRSGMLRLREQLAGELRDLSGSDRFGFVAEHRGMFSRLGATPEQVKRIKEEFGIYMVGDSRINIAGLNDNTIPILARAIIEVGV” as the sequence, how does the “soluble on expression in E. coli” value read?
A: The value was “soluble”.

Q: For “MGSDKIHHHHHHMTHDTSPIHRTIELPDELLVGAIDTHIHSGPWLKSCPGRLDPFQIAEQAKQAGMRAVVFYDHTFGNSAGTSWMVRRSVPGIDVYGGIILTTNFGGMNPRAVKTALHYGDGAKFVHFGTHCTYHMASREGSYVDGKPVPFKDLYPKFAEQELARAIRIPLDGPVPGELEEILGLVAGHPDVYLNTGHISPGEVMRLAELAERFGIRKMIVAHPARAWLSTAQQKDLSARGFFLEGSVSDWLFHRGLPRTNYYVEREYADEIAGIANEPQFQGVVQWASQLREVGLANVVLGTDYGIGSCPAPREGMRLLISTLLDLQFSLAEIELLTRRNPARLLGLE”, which “soluble on expression in E. coli” value is on record?
A: The value was “not soluble”.

Q: With “MKGPYKHFMQKEIFEQPDSAFNTMRGRIDFENCVVTLGGLKSWLSTIRRCRRIIMIACGTSYHSCLATRSIFEELTEIPVSVELASDFLDRRSPVFRDDTCVFVSQSGETADSILALQYCLERGALTVGIVNSVGSSMSRQTHCGVHINAGPEIGVASTKAYTSQYIALVMFALSLSNDSISRKGRHEEIIKGLQKIPEQIKQVLKLENKIKDLCNSSLNDQKSLLLLGRGYQFATALEGALKIKEISYMHSEGVLAGELKHGILALVDEDLPIIAFATRDSLFPKVMSAIEQVTARDGRPIVICNEGDAIISNDKVHTTLEVPETVDCLQGLLNVIPLQLISYWLAVNRGIDVDFPRNLAKSVTVE” as the sequence, how does the “soluble on expression in E. coli” value read?
A: Its value is “soluble”.

Q: Which “soluble on expression in E. coli” value does the source give for “MGSDKIHHHHHHMALYKTESGEIHLVRDICPHRGVPLTKGWVDGEEIVCPYHGLRYNTEGKCTQIPAQPELTKISDRFSLTKFPVVQRYGLIWTSIHGRDVTQANIPVLDTWDDAEHQAILPPFVDIGGSSGRQLEGFIDVAHFAWVHHNAFANRDNPIVPKYHTERTNYGLKTVYISNVSNYPHELKHLEPEGFLWKRTFEVYPPFSAVLTVDFPEGGILKILNACCPISSNKTRLFVPLTRNFDQTGDLEKVYAFNAQIFAEDQDMVESQKPEELPLDLMMEAHFEADRSSTTYRRILAEWGLSKRYTV” here?
A: Its value is “not soluble”.

Q: Which “soluble on expression in E. coli” value does the source give for “GSKPVSEKIMEIKLIKGPKGLGFSIAGGVGNQHWPGDNSIYVTKIIEGGAAHKDGKLQIGDKLLAVNNVALEEVTHEEAVTALKNTSDFVYLKVAKPTS” here?
A: Its value is “soluble”.

Q: With “GSDPGPEAARLRFRCFHYEEATGPQEALAQLRELCRQWLRPEVRSKEQMLELLVLEQFLGALPPEIQARVQGQRPGSPEEAAALVDGLRREPGG” as the sequence, how does the “soluble on expression in E. coli” value read?
A: Its value is “soluble”.

Q: Which “soluble on expression in E. coli” value does the source give for “MGSDKIHHHHHHMLPETMKAVVLTAHGGLDKLVYRDDVPVPVCRAGEVLLDVTACGLNNTDVWVREGAYGTDDDPQAVSTWRRGRSTLSFPRIQGADIVGRVIAVGHGVSDARVGERVIVDASIYNRDDDSLADIDYIGHGRDGGYAEYTAVPAQSAHRIDSACSDAELATFWCAYHTGEQMIERAAVKSGETVLITGASGGVGSAIVQLCRARGAVPYAVVSKGKEEAVRELGAQGVMLRDSEDFAAAVERMTGGRPVDVVADLVGGALFGKLLNVLRPEGRYTTAGAIAGPVVQLDLRTMYLKQLQLNGSSQGTRGAFKRVLDYIQAGTIRPVLAATYPLSKFHEAQTQFMAKRFVGNIVVVPDRHYNGTADRT” here?
A: The value was “not soluble”.

Q: For “MLKELSILTGGDGVGFQSAPEQQSLQPAELKPVNVSINSIDELMLFFESLNYTPENFHGGNKSVPRITFDAVGEGWRSVSDQLPVKQKKMVFFRLMTPLVLLANEKVLQERQQVMSAPLDDAELIALAVKYKVISNPTQPLLASHRQALLERVDILPPSLVLAQAAKESGWGTSRFTLEGNALFGQWDFNGNGMEPKQKRQGMGRYGLARFETPLASVEGYLLNLNTHSAYYKMRQLRAQSRHANQMITGTALAGTLDRYSERGHAYVEMIRKMIRTNKLYLADEAYLNDDMPLHLLTRTN”, which “soluble on expression in E. coli” value is on record?
A: Its value is “soluble”.

Q: With “MKQSIVSLAQVIRSKNAGPYELVLDILFKTKENYERVKSSGQLTPELIARLYHVEPDFIHRIVWFDPSNAVKIVMPRDIISGNVGDNDVYGAQQHAPLLNMSFDL” as the sequence, how does the “soluble on expression in E. coli” value read?
A: Its value is “soluble”.

Q: Which “soluble on expression in E. coli” value does the source give for “MSLNALDPHDALPWIEETTALELSPSQRSAVTLVLASKVSIITGGPGVGKTTILKAILSVLQREKVSVALCAPTGRAAKRLTESTGIEAKTIHRLLEFDPQAFDFKRGRGNPLDASFVVVDETSMVDVVLMQKLVAAIPDHAAVVFVGDVDQLPSVGPGAVLADMISSEAIPTVRLTEIFRQAAESMIVVNAHRINQGDMPLTAEGEELSDFYVVKAASAEEIHDKVIQLVTERIPKRFGLDAVKDVQVLTPMNKGGVGVHALNAELQAKLNPASEPKVTRFGTTFAPGDKVIQTVNNYDKEVFNGDIGLIEAIDPEAEIATAFFFDHHRAEYDFNDLDELSLAYATSIHKSQGSEYPAVVIPLAMQHFTLLERNLIYTAVTRGRKLVVIVAEPKALTLAIKNCKSKRRLTGLVQRLRESGKQSWQNEGHHHHHH” here?
A: The value was “soluble”.

Q: For “MSDALLAPLNEAQRQAVLHFEGPALVVAGAGSGKTRTVVHRVAYLVARRGVFPSEILAVTFTNKAAEEMRERLRGLVPGAGEVWVSTFHAAALRILRVYGERVGLRPGFVVYDEDDQTALLKEVLKELALSARPGPIKALLDRAKNRGVGLKALLGELPEYYAGLSRGRLGDVLVRYQEALKAQGALDFGDILLYALRLLEEDEEVLRLVRKRARFIHVDEYQDTSPVQYRFTRLLAGEEANLMAVGDPDQGIYSFRAADIKNILDFTRDYPEARVYRLEENYRSTEAILRFANAVIVKNALRLEKALRPVKRGGEPVRLYRAEDAREEARFVAEEIARLGPPWDRYAVLYRTNAQSRLLEQALAGRGIPARVVGGVGFFERAEVKDLLAYARLALNPLDAVSLKRVLNTPPRGIGPATWARVQLLAQEKGLPPWEALKEAARTFSRPEPLRHFVALVEELQDLVFGPAEAFFRHLLEATDYPAYLREAYPEDAEDRLENVEELLRAAKEAEDLQDFLDRVALTAKAEEPAEAEGRVALMTLHNAKGLEFPVVFLVGVEEGLLPHRNSVSTLEGLEEERRLFYVGITRAQERLYLSHAEEREVYGRREPARPSRFLEEVEEGLYEVYDPYRRPPSPPPHRPRPGAFRGGERVVHPRFGPGTVVAAQGDEVTVHFEGFGLKRLSLKYAELKPA”, which “soluble on expression in E. coli” value is on record?
A: Its value is “soluble”.

Q: For “MGSDKIHHHHHHMNKGVPLKTRAEVNAFNGSKMLKVIGLDEFVSNGICDNRHCLLLPNYNPNQRELLSLDWGAVAIQCGGIPSNLTIPVISKLEHPEVISTGDVIVLNENRVDILYRRKSTANLLFVTERCNHQCIMCSQPPKVLDDGWHFEECHQLLELIDRDIPVLGISGGEPTLQRDGFLKLLEHAKKALPSTQLHILTNGSAFEEYLYVEQIIQLGHQQIVWGIPIYGSTPQQHDYHTQVLGSFNKTMHGLYNLGHVGAQIELRVVLTRPIIENIVELSEFIARNLPFVSTVALMGLEPTGFARTNYEAVWCDLNDYQEELLEGTHVLLSSGLDTVLYNIPRCHVPKSLRSIAVQSISDWKNSTRKECEYCEEQNLCCGFFKSHTQRFSEQNVKPIQLERRSENVVRT”, which “soluble on expression in E. coli” value is on record?
A: Its value is “not soluble”.

Q: For “MGSDKIHHHHHHMADAETIRSYDQLAREQAAFQRHLQPTAIYRLVETFFHPGRPTIDIGSGSGRDVAWLNQHGYQAIGLEPSAGMIAEARAAYAGIEIRQGALPDLAGIADASFDNVLCVAVLMHLPAAELIGAVINLARILRPGGRLIVSYRTPPPEGERAHDGRLYTVIPPARLMLLLESSGLQILFSEDLPDPHRPSIRWFNMVAEKSDRDVSRGLERVGSVLAHDRKTATYKLALLRALCIIARNAFNLVEWSSDVVYVLLRAIATQWLIFYWPLLTSSEFIAQIRGEHPLSPKPIAFRPAITSLAKQLGGAAGLYNVLRILEEDPHRYDDILKLIANTIRKGPVTYSGSIHSPIFSYRPGKSDTFGWVAVPIDIWLDICRFNHWIEDSIVLRWAYLTDELNRTADPGRYLSLLVAKPLHERDTQEVRQALNRSPELFCVWTGQRLGHGYEVDHVIPYSVWGNNDLWNLLPAHPRINQTKRDALPARSILLARREAIIDYWQRYAQIDVFQPRFAVQIHRALGCNLRHADWPKLAFAGLEEVVERTAIVRGLPRWSP”, which “soluble on expression in E. coli” value is on record?
A: The value was “not soluble”.

Q: Which “soluble on expression in E. coli” value does the source give for “MSLLNKEALVNRLNASAKRQKADIVIKNGKIMDVYNQEWIYEDIAITDGVIVGLGEYEGENIIDAEGQMIVPGFIDGHVHIESSMVTPIEFAKAVLPHGVTTVVTDPHEIANVSGEKGIEFMLEQARHTPLNIHFMLPSSVPAASFERSGAILKAADLKPFYEEEEVLGLAEVMDYVSVQQAEKDMVQKLLDARVAGKRIDGHLAGLSTDLINIYRTAFVLNDHEVTSKEEALDRIRRGMYVMMREGSVAKNTLNVLPAVNEKNARRFFFCTDDKHVDDLLSEGSVNHQVKMAIQAGLNPFLAYQLGSLNAAECYGLDTKGAIAPGFDADLLFVSDLENVTVTMAMVKGQTVAEDSKAVYQDHASTAAPDQALLDSVKLAAPLNKQDFHMPIDSEQQINVIQIIPNQLETRLVQVPAPVAREFEPDTELDLLKIAVVERHKGLKETGLGVVKGFGFKSGAIATTISHDSHNIIAVGTNDEDIAAAVNKLQEIGGGLTIIKNGEELHSVPLPIAGLLSDQSAEQVNQSLLTLHDKLSLIGFTGGFNPFLTLSFLALPVIPDIKMTTTGLFDVKSFQHISLQEGHHHHHH” here?
A: Its value is “soluble”.
